Source: patent publication US20060062793A1 (published 2006)
Values belong to the binder of their own block, whether it stands above or below them.

Key:
[1] = target: T1, prostate specific membrane antigen (PSMA) on LNCaP cells (human, UniProt Q04609 1-750); test: ELISA on plates coated with LNCaP membrane preparation
T1 construct: whole, on cells; Used for intact LNCaP cells, LNCaP membrane preparations and LNCaP tumour or prostate tissue sections; also called human PSMA; LNCap membrane preparation

[2] = target: T1, prostate specific membrane antigen …; test: ELISA on LNCaP membrane preparation, purified antibody, reference J415 chimeric antibody
[3] = target: T1, prostate specific membrane antigen …; test: not described

T1 sequence (Q04609 whole entry): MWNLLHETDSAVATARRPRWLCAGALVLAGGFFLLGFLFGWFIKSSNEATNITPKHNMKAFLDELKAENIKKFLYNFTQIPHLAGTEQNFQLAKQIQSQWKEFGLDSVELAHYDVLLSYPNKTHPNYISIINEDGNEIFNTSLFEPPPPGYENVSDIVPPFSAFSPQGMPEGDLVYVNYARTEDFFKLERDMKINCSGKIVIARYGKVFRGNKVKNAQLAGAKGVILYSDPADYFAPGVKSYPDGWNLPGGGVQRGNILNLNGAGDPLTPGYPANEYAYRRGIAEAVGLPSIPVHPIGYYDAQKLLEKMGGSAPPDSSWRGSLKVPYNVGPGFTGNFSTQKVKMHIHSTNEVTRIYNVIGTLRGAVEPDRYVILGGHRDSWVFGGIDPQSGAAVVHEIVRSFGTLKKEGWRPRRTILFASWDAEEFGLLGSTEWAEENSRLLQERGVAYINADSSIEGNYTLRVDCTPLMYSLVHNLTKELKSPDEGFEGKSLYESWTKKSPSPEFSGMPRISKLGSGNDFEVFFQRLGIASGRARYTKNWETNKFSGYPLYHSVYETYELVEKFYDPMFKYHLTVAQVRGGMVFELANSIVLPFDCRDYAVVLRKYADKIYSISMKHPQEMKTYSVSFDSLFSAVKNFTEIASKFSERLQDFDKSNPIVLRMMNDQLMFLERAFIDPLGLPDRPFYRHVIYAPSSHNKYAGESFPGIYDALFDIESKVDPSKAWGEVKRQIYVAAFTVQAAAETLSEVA

B1: deimmunized J415 antibody, heavy chain version 4 with light chain version 5 (antibody, human IgG1, V domains shown)
VH: EVKLEESGGGLVQPGGSMKISCVASGFTFSNYWMNWVRQSPEKGLEWVAEIRSQSNNFATHYAESVKGRVIISRDDSKSSVYLQMNSLRAEDTAVYYCTRRWNNFWGQGTTVTVSS
VL: NIVMTQFPKSMSASAGERMTLTCKASENVGTYVSWYQQKPTQSPKMLIYGASNRFTGVPDRFSGSGSGTDFILTISSVQAEDLVDYYCGQSYTFPYTFGGGTKLEMK
notes: also called DIVH4/DIVK5; J415DIVH4/J415DIVK5
binding result [1]: binds

B2: deimmunized J415 antibody, heavy chain version 1 with light chain version 5 (antibody, human IgG1, V domains shown)
VH: EVKLEESGGGLVQPGGSMKISCKASGFTFSNYWMNWVRQTPEKGLEWVALIRSQSNNFATHYAESVKGRVIISRDDSKSSVYLQMNSLRAEDTAVYYCTRRWNNFWGQGTTVTVSS
VL: NIVMTQFPKSMSASAGERMTLTCKASENVGTYVSWYQQKPTQSPKMLIYGASNRFTGVPDRFSGSGSGTDFILTISSVQAEDLVDYYCGQSYTFPYTFGGGTKLEMK
notes: also called DIVH1/DIVK5; J415DIVH1 with DIVK5
fold less binding than the chimeric antibody [2]: 2 fold

B3: J415 chimeric antibody (antibody, V domains shown)
VH: EVKLEESGGGLVQPGGSMKLSCVASGFTFSNYWMNWVRQSPEKGLEWVAEIRSQSNNFATHYAESVKGRVIISRDDSKSSVYLQMNNLRAEDTGIYYCTRRWNNFWGQGTTLTVSS
VL: NIVMTQFPKSMSISVGERVTLTCKASENVGTYVSWYQQKPEQSPKMLIYGASNRFTGVPDRFTGSGSATDFILTISSVQTEDLVDYYCGQSYTFPYTFGGGTKLEMK
notes: also called the chimeric
binding result [1]: binds

B5: deimmunized J415 antibody, heavy chain version 2 with light chain version 5 (antibody, human IgG1, V domains shown)
VH: EVKLEESGGGLVQPGGSMKISCVASGFTFSNYWMNWVRQTPEKGLEWVALIRSQSNNFATHYAESVKGRVIISRDDSKSSVYLQMNSLRAEDTAVYYCTRRWNNFWGQGTTVTVSS
VL: NIVMTQFPKSMSASAGERMTLTCKASENVGTYVSWYQQKPTQSPKMLIYGASNRFTGVPDRFSGSGSGTDFILTISSVQAEDLVDYYCGQSYTFPYTFGGGTKLEMK
notes: also called DIVH2/DIVK5; J415DIVH2 with DIVK5
fold less binding than the chimeric antibody [2]: 2 fold

B7: murine E99 monoclonal antibody (antibody, mouse IgG3, V domains shown)
VH: QVQLKESGPGLVASSQSLSITCTVSGFSLTAYGINWVRQPPGKGLEWLGVIWPDGNTDYNSTLKSRLNIFKDNSKNQVFLKMSSFQTDDTARYFCARDSYGNFKRGWFDFWGQGTTLTVSS
VL: NIVMTQSQKFMSTSPGDRVRVTCKASQNVGSDVAWYQAKPGQSPRILIYSTSYRYSGVPDRFTAYGSGTDFTLTITNVQSEDLTEYFCQQYNSYPLTFGAGTKLELK
binding result [3]: binds

The remaining lines, values ahead:

binding result [3]: binds
B4: murine J415 monoclonal antibody (antibody, mouse IgG1, V domains shown)
VH: EVKLEESGGGLVQPGGSMKLSCVASGFTFSNYWMNWVRQSPEKGLEWVAEIRSQSNNFATHYAESVKGRVIISRDDSKSSVYLQMNNLRAEDTGIYYCTRRWNNFWGQGTTLTVSS
VL: NIVMTQFPKSMSISVGERVTLTCKASENVGTYVSWYQQKPEQSPKMLIYGASNRFTGVPDRFTGSGSATDFILTISSVQTEDLVDYYCGQSYTFPYTFGGGTKLEMK
notes: Mouse IgG1 kappa, hybridoma ATCC HB-12109

binding result [3]: binds
B6: murine J533 monoclonal antibody (antibody, mouse IgG1, V domains shown)
VH: EVQLQQSGPELVKPGASVKMSCKASGYTFTGYVMHWVKQKPGQVLEWIGYINPYNDVTRYNGKFKGKATLTSDKYSSTAYMELSGLTSEDSAVYYCARGENWYYFDSWGRGATLTVSS
VL: DIVLTQSPASLAVSLGQRATISCRASESIDSYDNTFMHWYQQKPGQPPNLLIFRASILESGIPARFSGSGSGTDFTLTIYPVEADDVATYYCHQSIEDPYTFGGGTKLEIK
notes: Mouse IgG1 kappa, hybridoma ATCC HB-12127
